Test [1] addresses FBXO11 (UniProt Q86XK2). In words: co-IP of alanine scanning mutants. The following applies: reference: wild type; sites S11.
Test [2] deals with FBXO11 (UniProt Q86XK2). In words: co-IP with anti-HA. The following applies: reference: wild type; sites S11.

As for SNAIL (from UniProt O95863) S11A, the “binding against the reference” value with FBXO11 [1] was “lost”.

In the case of SNAIL (from UniProt O95863) S11V, the “binding against the reference” value in the test with FBXO11 [2] is “lost”.

These data come from publication PMC4159622.
